One experiment deals with HLA-A*02:06. Briefly: IEDB peptide-MHC binding, purified MHC/competitive/radioactivity; filed as Kd, often an IC50 or EC50 that approximates it; ≥ and ≤ were set here for values at or beyond the usual limits of such assays.
The target of another experiment is HLA-A*68:02. The description is as above.
Experiment [1] addresses HLA-B*15:01. The description is as above.
The next experiment addresses HLA-B*08:01. The description is as above.
For experiment [2], the target named is HLA-A*02:01. The description is as above.
The next experiment concerns the target HLA-A*02:02. The experiment is described as above.
A further experiment addresses HLA-A*02:03. The experiment is described as above.
The next experiment addresses HLA-B*44:02. The experiment is described as above. The note with it: source organism: Dengue virus 4 Philippines/H241/1956.
Experiment [3] addresses HLA-B*15:01. Briefly: IEDB peptide-MHC binding, purified MHC/competitive/fluorescence; filed as Kd, often an IC50 or EC50 that approximates it; ≥ and ≤ were set here for values at or beyond the usual limits of such assays.
In experiment [4] the target is HLA-A*03:01. The description is as above.
In a further experiment the target is HLA-B*27:03. Described as above.
The target of another experiment is HLA-B*18:01. Described as above.
Experiment [5] deals with HLA-A*02:01. Described as above.
The target of another experiment is HLA-A*26:01. The description is as above.
Experiment [6] has as its target HLA-B*51:01. The experiment is described as above. Conditions: source organism: Helicobacter pylori 26695.
A further experiment concerns the target HLA-B*39:01. The description is as above.
The next experiment has as its target HLA-B*46:01. Described as above.
Another experiment deals with HLA-B*57:01. The experiment is described as above.
The target in the next experiment is HLA-A*31:01. Put plainly: IEDB peptide-MHC binding, purified MHC/competitive/radioactivity; filed as Kd, often an IC50 or EC50 that approximates it; ≥ and ≤ were set here for values at or beyond the usual limits of such assays.
Another experiment deals with HLA-A*11:01. Described as above.
A further experiment deals with HLA-B*53:01. Described as above.
Experiment [7] deals with HLA-A*03:01. Described as above.
Another experiment addresses HLA-A*68:01. The description is as above.
Another experiment concerns the target HLA-B*35:01. Described as above.
The target in experiment [8] is HLA-B*51:01. Described as above.
The target in another experiment is HLA-A*33:01. The description is as above.
The next experiment has as its target HLA-B*07:02. The description is as above.
For a further experiment, the target named is HLA-B*54:01. The experiment is described as above.
A further experiment has as its target HLA-A*30:01. The description is as above. The note with it: source organism: Vaccinia virus WR.
Setting [9] is: source organism: Vaccinia virus WR.
The mark [10] stands for this setting: source organism: HIV-1 M:B_ARV2/SF2.
The mark [11] stands for this setting: source organism: Dengue virus 4 Philippines/H241/1956.
Where [12] appears, read: source organism: Lassa virus Josiah.
Where [13] appears, read: source organism: Dengue virus 2 Jamaica/1409/1983.
The mark [14] stands for this setting: source organism: Dengue virus 3 Martinique/1243/1999.
The mark [15] stands for this setting: source organism: Helicobacter pylori 26695.
Setting [16] is: source organism: Vaccinia virus Copenhagen.
The mark [17] stands for this setting: source organism: Dengue virus 1 Brazil/97-11/1997.
The mark [18] stands for this setting: source organism: Triticum aestivum.
[19] abbreviates: source organism: Camelpox virus CMS.

This note sets out measurements from the Immune Epitope Database (IEDB).

Take ELEKTRRKL: the results for the Kd in the experiment with HLA-A*02:06 (source organism: Homo sapiens) and with HLA-A*68:02 (source organism: Homo sapiens) were at least 45200 nM and 6990 nM, respectively.
For MSIISFFPF, the figures for the Kd in the experiment with HLA-B*15:01 [1] (setting [9]) and with HLA-B*08:01 (setting [9]) were 0.168 nM and 857 nM, respectively.
Take VIYQYMDDL: the Kd with HLA-A*02:06 (setting [10]) is 7680 nM; with HLA-A*02:01 [2] (setting [10]) it was 5.84 µM; with HLA-A*68:02 (setting [10]) it was at least 56200 nM; with HLA-A*02:02 (setting [10]) it was 156 nM; in the experiment with HLA-A*02:03 (setting [10]) it was 4740 nM.
In the case of TSAWVMYGT, the Kd with HLA-A*68:02 (setting [11]) is 1.7 nM.
As for LLSQRTRDI, the Kd in the experiment with HLA-A*02:01 [2] (setting [12]) is 12.5 µM.
Consider ITASILLWYA, for which the dissociation constant (Kd) in the experiment with HLA-A*02:06 (setting [13]) worked out at 1.98 nM; in the experiment with HLA-A*68:02 (setting [13]), 12.4 nM.
RLFTKVKPLL: the Kd is 4040 nM in the experiment with HLA-A*02:06 (source organism: Homo sapiens), 13600 nM in the experiment with HLA-A*68:02 (source organism: Homo sapiens) and 96 nM with HLA-A*02:03 (source organism: Homo sapiens).
As to DLNLGNLN, the Kd in the experiment with HLA-A*02:01 [2] (source organism: Hepatitis B virus subtype ayw) was at least 5 µM.
For MEKLRIKGM, the Kd with HLA-B*08:01 (setting [11]) worked out at 20.8 nM; in the experiment with HLA-B*44:02 it was 1260 nM.
As to TVVVGDIIGV, the results for the dissociation constant Kd in the experiment with HLA-A*02:06 (setting [14]) and with HLA-A*68:02 (setting [14]) were 2.44 nM and 1.87 nM, respectively.
For GIVCYNEEV, the Kd in the experiment with HLA-B*15:01 [3] (setting [15]) was at least 20 µM; in the experiment with HLA-A*03:01 [4] (setting [15]), at least 20 µM; in the experiment with HLA-B*27:03 (setting [15]), at least 20 µM; with HLA-B*18:01 (setting [15]), at least 20 µM; in the experiment with HLA-A*02:01 [5] (setting [15]), 38 nM; with HLA-A*26:01 (setting [15]) it was at least 20 µM. In addition, the equilibrium dissociation constant (Kd) with HLA-B*51:01 [6], with HLA-B*39:01 (setting [15]), in the experiment with HLA-B*46:01 (setting [15]) and with HLA-B*57:01 (setting [15]) was at least 20 µM throughout.
Consider EIASLPTYL, for which, in the experiment with HLA-A*68:02 (setting [11]), the Kd was determined as 7.91 nM.
As to IMAVGLVSLL, in the experiment with HLA-B*08:01 (setting [11]), the Kd is 863 nM.
In the case of SIFLHLVKI, the equilibrium dissociation constant (Kd) with HLA-A*02:01 [2] (setting [12]) turned out to be 0.385 µM.
As to VSRQEKGKSL, the equilibrium dissociation constant (Kd) with HLA-B*08:01 (source organism: Dengue virus 2 Peru/IQT2913/1996) was 967 nM.
In the case of ELNDRFANYI, the dissociation constant (Kd) turned out to be 11.6 nM with HLA-A*68:02 (source organism: Homo sapiens) and 37.6 nM with HLA-A*02:02 (source organism: Homo sapiens).
As for IISTFHLSI, the equilibrium dissociation constant (Kd) came out at 264 nM in the experiment with HLA-A*02:06 (setting [12]), 652 nM with HLA-A*68:02 (setting [12]), 236 nM with HLA-A*02:02 (setting [12]) and 13.9 nM in the experiment with HLA-A*02:03 (setting [12]).
On to LLKPRCNPA, for which the values for the Kd with HLA-B*15:01 [1] (setting [9]) and with HLA-B*08:01 (setting [9]) were 20.6 nM and 1.16 nM, respectively.
Take SFKFRPGSL: in the experiment with HLA-B*08:01 (setting [9]), the dissociation constant (Kd) came out at 2.98 nM.
Regarding YAKSKRMAE, in the experiment with HLA-B*08:01 (setting [9]), the dissociation constant Kd is 31.1 nM.
For the sequence SIFIRMLIL, the dissociation constant (Kd) with HLA-B*08:01 (setting [16]) stood at 10.1 nM.
DLNGAQIKL: the Kd with HLA-A*02:01 [2] (source organism: Homo sapiens) was at least 50.6 µM; with HLA-A*68:02 (source organism: Homo sapiens), 2980 nM; with HLA-A*02:02 (source organism: Homo sapiens), 2620 nM.
Take FLTSVINRV: the Kd with HLA-A*31:01 (setting [16]) was at least 77900 nM; with HLA-A*11:01 (setting [16]), at least 77900 nM; with HLA-B*53:01 (setting [16]) it was at least 61 µM; with HLA-A*03:01 [7] (setting [16]), at least 78000 nM; with HLA-A*68:01 (setting [16]) it was 9.6 µM; with HLA-B*35:01 (setting [16]), 19 µM. The Kd with HLA-A*02:02 (setting [16]) is 1.66 nM; with HLA-B*51:01 [8] (setting [16]), at least 37200 nM; with HLA-A*33:01 (setting [16]), at least 77700 nM; with HLA-B*07:02 (setting [16]), at least 77500 nM; with HLA-B*54:01 (setting [16]) it was 904 nM; with HLA-A*02:03 (setting [16]) it was 5.63 nM. In the experiment with HLA-A*02:01 [5] (source organism: Variola virus), the Kd came out at 3.5 nM.
As for FLLLCGRSCT, in the experiment with HLA-A*02:01 [2] (setting [12]), the Kd was at least 25 µM.
In the case of MQRKHGGML, the Kd with HLA-B*15:01 [1] (setting [17]) was 100 nM; with HLA-B*08:01 (setting [17]), 170 nM.
Consider NSTHEMYWV, for which the Kd in the experiment with HLA-A*68:02 (setting [13]) came out at 92.1 nM.
Regarding NLYDHALMSI, the Kd with HLA-A*02:06 (setting [12]) came to 23.1 nM; with HLA-A*68:02 (setting [12]), 75 nM; in the experiment with HLA-A*02:02 (setting [12]), 1.75 nM; in the experiment with HLA-A*02:03 (setting [12]), 0.543 nM.
Consider NRMEIFLVL, for which the equilibrium dissociation constant (Kd) with HLA-B*08:01 (setting [16]) worked out at 4.85 nM.
On to LQQSTYQLV, for which the Kd in the experiment with HLA-A*02:06 (setting [18]) was 27.5 nM; with HLA-A*02:01 [2] (setting [18]) it was 0.0913 µM; with HLA-A*68:02 (setting [18]) it was at least 56500 nM; in the experiment with HLA-A*02:02 (setting [18]), 436 nM; with HLA-A*02:03 (setting [18]), 18.8 nM.
For the sequence MTIREFPRK, the equilibrium dissociation constant (Kd) is 99.8 nM with HLA-A*31:01 (setting [9]); 3.92 nM with HLA-A*11:01 (setting [9]); at least 78.2 µM with HLA-B*53:01 (setting [9]); 1.59 nM with HLA-A*30:01; 6.27 nM in the experiment with HLA-A*03:01 [7] (setting [9]); at least 65600 nM in the experiment with HLA-A*02:06 (setting [9]). Also, the dissociation constant (Kd) with HLA-A*68:01 (setting [9]) was 0.00619 µM; in the experiment with HLA-B*35:01 (setting [9]), at least 77.4 µM; with HLA-A*02:01 [2] (setting [9]), at least 78.1 µM; with HLA-A*68:02 (setting [9]), 3320 nM; with HLA-A*02:02 (setting [9]), at least 77800 nM; with HLA-B*51:01 [8] (setting [9]) it was at least 77500 nM. The Kd is 1380 nM with HLA-A*33:01 (setting [9]), at least 77500 nM in the experiment with HLA-B*07:02 (setting [9]), at least 78100 nM in the experiment with HLA-B*54:01 (setting [9]) and at least 78100 nM with HLA-A*02:03 (setting [9]).
For TASLVMLLV, the dissociation constant Kd with HLA-A*68:02 (source organism: Dengue virus 4 Dominica/814669/1981) came out at 82.5 nM.
For the sequence GIRPRFLSQ, the Kd with HLA-B*08:01 (setting [16]) was 221 nM.
Take WVIDTLNGI: the Kd in the experiment with HLA-B*15:01 [3] (setting [19]) was at least 20 µM; with HLA-A*03:01 [4] (setting [19]), at least 20 µM; with HLA-B*27:03 (setting [19]), at least 20 µM; with HLA-B*18:01 (setting [19]), at least 20 µM; with HLA-A*02:01 [5] (setting [19]) it was 7.4 nM; in the experiment with HLA-A*26:01 (setting [19]), at least 20 µM. Moreover, the Kd with HLA-B*39:01 (setting [19]), with HLA-B*46:01 (setting [19]) and with HLA-B*57:01 (setting [19]) was at least 20 µM throughout.
With SRISRFANL, the Kd in the experiment with HLA-B*08:01 (setting [9]) worked out at 19.6 nM.
Consider FPANINDKQI, for which the Kd with HLA-B*53:01 (setting [9]) worked out at 0.00877 µM; in the experiment with HLA-B*35:01 (setting [9]), 0.384 µM; in the experiment with HLA-B*51:01 [8] (setting [9]), 145 nM; with HLA-B*07:02 (setting [9]), 468 nM; with HLA-B*54:01 (setting [9]), 13.8 nM.
Taken in the same sequence, the figures for MPEKRNVVVV were 13.2 µM, 4.35 µM, 2090 nM, 194 nM and 40.6 nM.
